From patent US20190161555A1
Where a chain is given by its changes, count along the chain named.

B1: 1166/1167 (antibody, V domains shown)
VH: EVQLLESGGGLVQPGGSLRLSCAASGFTFGGYYMSWVRQAPGKGLEWVSAISGSGGSTYYADSVKGRFTISRDNSKNTLYLQMNSLRAEDTAVYYCARYDYASMDYWGQGTLVTVSS
VL: DIQMTQSPSSLSASVGDRVTITCRASQSISSYLNWYQQKPGKAPKLLIYAASSLQSGVPSRFSGSGSGTDFTLTISSLQPEDFATYYCQQYYWYGLSTFGQGTKLEIK
B2: 1526/1527 (antibody, V domains shown)
VH: EVQLLESGGGLVQPGGSLRLSCAASGFTFSGYSMYWVRQAPGKGLEWVSGIGYSGYGTYYADSVKGRFTISRDNSKNTLYLQMNSLRAEDTAVYYCARYYFHDYAAYSLDYWGQGTLVTVSS
VL: B1 VL with Y92G, W93S, Y94D, G95S, S97L
B3: 1524/1525 (antibody, V domains shown)
VH: EVQLLESGGGLVQPGGSLRLSCAASGFTFGSYYMGWVRQAPGKGLEWVSSIGSYYGYTYYADSVKGRFTISRDNSKNTLYLQMNSLRAEDTAVYYCARHDYGALDYWGQGTLVTVSS
VL: B1 VL with Y92G, W93P, Y94S, S97F
B4: 1514/1515 (antibody, V domains shown)
VH: EVQLLESGGGLVQPGGSLRLSCAASGFTFGYYYMSWVRQAPGKGLEWVSGISSYGSYTYYADSVKGRFTISRDNSKNTLYLQMNSLRAEDTAVYYCARSGYSNWANSFDYWGQGTLVTVSS
VL: DIQMTQSPSSLSASVGDRVTITCRASQSISSYLNWYQQKPGKAPKLLIYAASSLQSGVPSRFSGSGSGTDFTLTISSLQPEDFATYYCQQGDYTLFTFGQGTKLEIK
B5: 1212/1213 (antibody, IgG1, V domains shown)
VH: EVQLLESGGGLVQPGGSLRLSCAASGFTFSSYAMSWVRQAPGKGLEWVSYISSYGGYTSYADSVKGRFTISRDNSKNTLYLQMNSLRAEDTAVYYCARYHSGVLDYWGQGTLVTVSS
VL: B1 VL with W93Y, Y94H, G95Y, S97L
B6: 1206/1207 (antibody, V domains shown)
VH: EVQLLESGGGLVQPGGSLRLSCAASGFTFSGSSMSWVRQAPGKGLEWVSSIYYSGSGTYYADSVKGRFTISRDNSKNTLYLQMNSLRAEDTAVYYCARYGRNVHPYNLDYWGQGTLVTVSS
VL: B4 VL with D92Y, T94Y, F96P

Each binder was assayed against Chimeric OX40 construct 1544 (human; mouse) (UniProt P47741) (assay: flow cytometry, 293-F cells transfected with the construct).
Chain of Chimeric OX40 construct 1544 (human; mouse) (P43489 other isoform, or with tags, fused parts or gaps mutant, form in doubt): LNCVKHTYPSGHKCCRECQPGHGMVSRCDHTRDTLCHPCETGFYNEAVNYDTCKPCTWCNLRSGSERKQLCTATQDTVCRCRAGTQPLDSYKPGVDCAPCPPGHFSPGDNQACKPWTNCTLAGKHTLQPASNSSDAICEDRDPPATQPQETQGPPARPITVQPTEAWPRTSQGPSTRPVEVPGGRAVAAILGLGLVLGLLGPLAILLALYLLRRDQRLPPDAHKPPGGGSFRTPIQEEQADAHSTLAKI

relative MFI (fold over isotype control)	Binder
14.2	B1
1.1	B2
1.5	B3
11.6	B4

Each binder was assayed against Chimeric OX40 construct 1549 (human; mouse) (UniProt P47741) in the same assay as above.

relative MFI (fold over isotype control)	Binder
11.3	B1
8.5	B2
11.2	B3
10.6	B4

These binders were tested against Chimeric OX40 construct 1548 (human; mouse) (UniProt P43489) in the same assay as above.
Chain of Chimeric OX40 construct 1548 (human; mouse) (P43489 other isoform, or with tags, fused parts or gaps mutant, form in doubt): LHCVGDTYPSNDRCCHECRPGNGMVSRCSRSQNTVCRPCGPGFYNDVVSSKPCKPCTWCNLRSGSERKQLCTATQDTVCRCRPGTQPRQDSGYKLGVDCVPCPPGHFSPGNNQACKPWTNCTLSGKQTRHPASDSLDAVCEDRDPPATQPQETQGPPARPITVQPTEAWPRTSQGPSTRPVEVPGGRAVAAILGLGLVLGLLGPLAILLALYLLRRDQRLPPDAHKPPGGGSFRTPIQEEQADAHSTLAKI

relative MFI (fold over isotype control)	Binder
15.8	B1
12.7	B2
15.4	B3
17.2	B4

What follows are binders tested against Chimeric OX40 construct 1545 (human; mouse) (UniProt P43489) in the same assay as above.
Chain of Chimeric OX40 construct 1545 (human; mouse) (P43489 other isoform, or with tags, fused parts or gaps mutant, form in doubt): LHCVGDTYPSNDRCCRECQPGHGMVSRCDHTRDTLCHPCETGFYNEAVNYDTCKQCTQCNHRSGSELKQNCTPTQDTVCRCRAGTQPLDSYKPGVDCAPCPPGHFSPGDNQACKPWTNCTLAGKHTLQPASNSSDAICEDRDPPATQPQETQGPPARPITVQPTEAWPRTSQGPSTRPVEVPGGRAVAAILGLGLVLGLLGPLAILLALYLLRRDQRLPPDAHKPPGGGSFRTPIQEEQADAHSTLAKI

relative MFI (fold over isotype control)	Binder
1	B1
1.3	B2
0.9	B3
1.2	B4

What follows are binders tested against Chimeric OX40 construct 1546 (human; mouse) (UniProt P43489) in the same assay as above.
Chain of Chimeric OX40 construct 1546 (human; mouse) (P43489 other isoform, or with tags, fused parts or gaps mutant, form in doubt): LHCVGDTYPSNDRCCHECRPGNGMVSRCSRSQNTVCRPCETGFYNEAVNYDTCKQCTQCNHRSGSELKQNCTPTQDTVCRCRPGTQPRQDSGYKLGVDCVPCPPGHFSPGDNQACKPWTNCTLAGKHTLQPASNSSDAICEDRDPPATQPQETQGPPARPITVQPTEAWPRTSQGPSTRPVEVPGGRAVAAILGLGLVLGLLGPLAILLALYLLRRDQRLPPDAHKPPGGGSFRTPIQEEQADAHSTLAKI

relative MFI (fold over isotype control)	Binder
0.8	B1
0.9	B2
0.9	B3
0.9	B4

Each binder was assayed against Chimeric OX40 construct 1547 (human; mouse) (UniProt P43489) in the same assay as above.
Chain of Chimeric OX40 construct 1547 (human; mouse) (P43489 other isoform, or with tags, fused parts or gaps mutant, form in doubt): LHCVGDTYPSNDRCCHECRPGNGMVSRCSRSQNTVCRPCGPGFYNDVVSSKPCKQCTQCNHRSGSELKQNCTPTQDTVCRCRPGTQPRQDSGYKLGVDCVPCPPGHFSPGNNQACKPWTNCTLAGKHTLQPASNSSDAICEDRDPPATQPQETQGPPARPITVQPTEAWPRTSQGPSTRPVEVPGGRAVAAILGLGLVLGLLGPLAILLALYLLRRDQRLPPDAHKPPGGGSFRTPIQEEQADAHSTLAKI

relative MFI (fold over isotype control)	Binder
15.2	B1
1	B2
1	B3
1.1	B4

These binders were tested against human/mouse 5T4 chimera aa173-420 (human; mouse) (UniProt Q13641) (assay: flow cytometry, cells with 5T4 chimera; % positive cells over that of the best clone).
Chain of human/mouse 5T4 chimera aa173-420 (human; mouse) (Q13641 other isoform, or with tags, fused parts or gaps mutant limits assumed, form in doubt): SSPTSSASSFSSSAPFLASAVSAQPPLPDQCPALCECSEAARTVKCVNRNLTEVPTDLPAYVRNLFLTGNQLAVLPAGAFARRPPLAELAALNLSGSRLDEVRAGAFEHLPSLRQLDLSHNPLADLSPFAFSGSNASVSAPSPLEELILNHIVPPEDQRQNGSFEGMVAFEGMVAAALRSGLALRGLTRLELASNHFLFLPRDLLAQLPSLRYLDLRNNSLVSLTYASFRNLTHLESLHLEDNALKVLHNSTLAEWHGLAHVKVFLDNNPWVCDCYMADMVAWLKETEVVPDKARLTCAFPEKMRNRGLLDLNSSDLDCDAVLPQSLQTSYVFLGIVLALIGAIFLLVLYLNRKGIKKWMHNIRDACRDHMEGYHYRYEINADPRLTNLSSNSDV

normalized % positive cells	Binder
-0.01	B5
0.3	B6
